B1: AC-PD-1 (45-64) (peptide)
peptide: Ac-KLAAFPEDRSQPGQDCRFR-NH2
notes: also called acetylated peptide
B2: PD-1 (92-110) (peptide)
peptide: H-GAISLAPKAQIKESLRAEL-NH2
notes: Free peptide (H2N- at the N-terminus); also called free peptide
B3: PD-1 (45-64) (peptide)
peptide: H-KLAAFPEDRSQPGQDCRFR-NH2
notes: Free peptide (H2N- at the N-terminus); also called free peptide; 46-64
B4: MVF-HER-2(266-296) (peptide)
peptide: KLLSLIKGVIVHRLEGVEGPSLLHCPALVTYNTDTFESMPNPEGRYTFGASCV
notes: Negative control peptide in SPR
B5: AC-PD-1 (73-90) (peptide)
peptide: Ac-DFHMSVVRARRNDSGTYL-NH2
notes: as for B1
B6: PD-1 (73-90) (peptide)
peptide: H-DFHMSVVRARRNDSGTYL-NH2
notes: as for B2
B7: AC-PD-1 (92-110) (peptide)
peptide: Ac-GAISLAPKAQIKESLRAEL-NH2
notes: as for B1

Target: T1, recombinant hPD-L1 ectodomain (human, UniProt Q9NZQ7 19-238)
T1 construct: extracellular domain; Immobilised on a CM5 chip by amine coupling (2345 RU); also called rhPD-L1; rPD-L1
T1 sequence (Q9NZQ7 19-238): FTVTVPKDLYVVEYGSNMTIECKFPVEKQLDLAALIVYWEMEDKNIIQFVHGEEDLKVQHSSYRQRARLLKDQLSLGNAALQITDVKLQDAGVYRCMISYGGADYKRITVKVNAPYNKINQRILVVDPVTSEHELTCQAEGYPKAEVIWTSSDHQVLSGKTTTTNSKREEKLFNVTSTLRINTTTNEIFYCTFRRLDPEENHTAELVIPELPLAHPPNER
Assay: SPR (Biacore T200), rhPD-L1 immobilised on CM5 chip, 1 µM peptide injected

Row | Binder | binding result | SPR response
1 | B1 | binds | 
2 | B2 | binds | 
3 | B3 | binds | 
4 | B4 |  | 20 RU
5 | B5 | binds | 
6 | B6 | binds | 
7 | B7 | binds | 

Reference: patent publication US20200197498A1 (OHIO STATE INNOVATION FOUNDATION, published 2020)
